Laboratory results published in the PETadex activity labels (doi:10.1016/j.bbalip.2005.11.003).

B1: unnamed (protein)
chain: MVLKQRANYLGFLIVFFTAFLVEAVPIKRQSNSTVDSLPPLIPSRTSAPSSSPSTTDPEAPAMSRNGPLPSDVETKYGMALNATSYPDSVVQAMSIDGGIRAATSQEINELTYYTTLSANSYCRTVIPGATWDCIHCDATEDLKIIKTWSTLIYDTNAMVARGDSEKTIYIVFRGSSSIRNWIADLTFVPVSYPPVSGTKVHKGFLDSYGEVQNELVATVLDQFKQYPSYKVAVTGHSLGGATALLCALDLYQREEGLSSSNLFLYTQGQPRVGDPAFANYVVSTGIPYRRTVNERDIVPHLPPAAFGFLHAGEEYWITDNSPETVQVCTSDLETSDCSNSIVPFTSVLDHLSYFGINTGLCT
B2: unnamed (protein)
chain: MAKKDEHLRKPEWLKIKLNTNENYTGLKKLMRENNLHTVCEEAKCPNIHECWAVRRTATFMILGSVCTRACRFCAVKTGLPTELDLQEPERVADSVALMNLKHAVITAVARDDQKDGGAGIFAETVRAIRRKSPFTTIEVLPSDMGGNYDNLKTLMDTRPDILNHNIETVRRLTPRVRARATYDRSLEFLRRAKEMQPDIPTKSSIMIGLGETKEEIIEVMDDLLANNVDIMAIGQYLQPTKKHLKVQKYYHPDEFAELKEIAMQKGFSHCEAGPLVRSSYHADEQVNEASKKRQAQA
B3: unnamed (protein)
chain: MRSSLVLFFVSAWTALASPIRREVSQDLFNQFNLFAQYSAAAYCGKNNDAPAGTNITCTGNACPEVEKADATFLYSFEDSGVGDVTGFLALDNTNKLIVLSFRGSRSIENWIGNLNFDLKEINDICSGCRGHDGFTSSWRSVADTLRQKVEDAVREHPDYRVVFTGHSLGGALATVAGADLRGNGYDIDVFSYGAPRVGNRAFAEFLTVQTGGTLYRITHTNDIVPRLPPREFGYSHSSPEYWIKSGTLVPVTRNDIVKIEGIDATGGNNQPNIPDIPAHLWYFGLIGTCL
B4: unnamed (protein)
chain: MTEPTVARPDIDPVLKMLLDTFPVTFTAADGVEVARARLRQLKTPPELLPELRIEERTVGYDGLTDIPVRVYWPPVVRDNLPVVVYYHGGGWSLGGLDTHDPVARAHAVGAQAIVVSVDYRLAPEHPYPAGIDDSWAALRWVGENAAELGGDPSRIAVAGDSAGGNISAVMAQLARDVGGPPLVFQLLWYPTTMADLSLPSFTENADAPILDRDVIDAFLAWYVPGLDISDHTMLPTTLAPGNADLSGLPPAFIGTAEHDPLRDDGACYAELLTAAGVSVELSNEPTMVHGYVNFALVVPAAAEATGRGLAALKRALHA
B5: unnamed (protein)
chain: AEVCYSHLGCFSDEKPWAGTSQRPIKSLPSDPKKINTRFLLYTNENQNSYQLITATDIATIKASNFNLNRKTRFIIHGFTDSGENSWLSDMCKNMFQVEKVNCICVDWKGGSKAQYSQASQNIRVVGAEVAYLVQVLSTSLNYAPENVHIIGHSLGAHTAGEAGKRLNGLVGRITGLDPAEPYFQDTPEEVRLDPSDAKFVDVIHTDISPILPSLGFGMSQKVGHMDFFPNGGKDMPGCKTGISCNHHRSIEYYHSSILNPEGFLGYPCASYDEFQESGCFPCPAKGCPKMGHFADQYPGKTNAVEQTFFLNTGASDNFTRWRYKVTVTLSGEKDPSGNINVALLGKNGNSAQYQVFKGTLKPDASYTNSIDVELNVGTIQKVTFLWKRSGISVSKPKMGASRITVQSGKDGTKYNFCSSDIVQENVEQTLSPC
B6: unnamed (protein)
chain: MEPGSKSVSRSDWQPEPHQRPITPLEPGPEKTPIAQPESKTLQGSNTQQKPASNQRPLTQQETPAQHDAESQKEPRAQQKSASQEEFLAPQKPAPQQSPYIQRVLLTQQEAASQQGPGLGKESITQQEPALRQRHVAQPGPGPGEPPPAQQEAESTPAAQAKPGAKREPSAPTESTSQETPEQSDKQTTPVQGAKSKQGSLTELGFLTKLQELSIQRSALEWKALSEWVTDSESESDVGSSSDTDSPATMGGMVAQGVKLGFKGKSGYKVMSGYSGTSPHEKTSARNHRHYQDTASRLIHNMDLRTMTQSLVTLAEDNIAFFSSQGPGETAQRLSGVFAGVREQALGLEPALGRLLGVAHLFDLDPETPANGYRSLVHTARCCLAHLLHKSRYVASNRRSIFFRTSHNLAELEAYLAALTQLRALVYYAQRLLVTNRPGVLFFEGDEGLTADFLREYVTLHKGCFYGRCLGFQFTPAIRPFLQTISIGLVSFGEHYKRNETGLSVAASSLFTSGRFAIDPELRGAEFERITQNLDVHFWKAFWNITEMEVLSSLANMASATVRVSRLLSLPPEAFEMPLTADPTLTVTISPPLAHTGPGPVLVRLISYDLREGQDSEELSSLIKSNGQRSLELWPRPQQAPRSRSLIVHFHGGGFVAQTSRSHEPYLKSWAQELGAPIISIDYSLAPEAPFPRALEECFFAYCWAIKHCALLGSTGERICLAGDSAGGNLCFTVALRAAAYGVRVPDGIMAAYPATMLQPAASPSRLLSLMDPLLPLSVLSKCVSAYAGAKTEDHSNSDQKALGMMGLVRRDTALLLRDFRLGASSWLNSFLELSGRKSQKMSEPIAEPMRRSVSEAALAQPQGPLGTDSLKNLTLRDLSLRGNSETSSDTPEMSLSAETLSPSTPSDVNFLLPPEDAGEEAEAKNELSPMDRGLGVRAAFPEGFHPRRSSQGATQMPLYSSPIVKNPFMSPLLAPDSMLKSLPPVHIVACALDPMLDDSVMLARRLRNLGQPVTLRVVEDLPHGFLTLAALCRETRQAAELCVERIRLVLTPPAGAGPSGETGAAGVDGGCGGRH

Assays:
Settings in all cases: pH 7; 25 °C
p-NP-C4 = substrate: p-NP-C4
triacetin = substrate: triacetin
tributyrin = substrate: tributyrin
tripropionin = substrate: tripropionin
vinyl acetate = substrate: vinyl acetate
vinyl butyrate = substrate: vinyl butyrate
vinyl laurate = substrate: vinyl laurate
vinyl propionate = substrate: vinyl propionate

Protein | Km (p-NP-C4) | kcat (p-NP-C4) | kcat/Km (p-NP-C4) | Km (tributyrin) | kcat (tributyrin) | kcat/Km (tributyrin) | Km (tripropionin) | kcat (tripropionin) | kcat/Km (tripropionin) | Km (vinyl acetate) | kcat (vinyl acetate) | kcat/Km (vinyl acetate) | Km (vinyl butyrate) | kcat (vinyl butyrate) | kcat/Km (vinyl butyrate) | Km (vinyl laurate) | kcat (vinyl laurate) | kcat/Km (vinyl laurate) | Km (vinyl propionate) | kcat (vinyl propionate) | other results
B1 | 2.1 mM | 420 s⁻¹ | 200000 M⁻¹ s⁻¹ | 0.45 mM | 1080 s⁻¹ | 2.4e+06 M⁻¹ s⁻¹ | 18 mM | 200 s⁻¹ | 11100 M⁻¹ s⁻¹ | 120 mM | 950 s⁻¹ | 7920 M⁻¹ s⁻¹ | 15 mM | 5390 s⁻¹ | 359000 M⁻¹ s⁻¹ | 2 mM | 5400 s⁻¹ | 2.7e+06 M⁻¹ s⁻¹ | 35 mM | 3680 s⁻¹ | Km (triacetin): 210 mM; kcat (triacetin): 10 s⁻¹; kcat/Km (triacetin): 47.6 M⁻¹ s⁻¹; kcat/Km (vinyl propionate): 105000 M⁻¹ s⁻¹
B2 | 0.75 mM | 50 s⁻¹ | 66700 M⁻¹ s⁻¹ | 0.4 mM | 100 s⁻¹ | 250000 M⁻¹ s⁻¹ | 12 mM | 150 s⁻¹ | 12500 M⁻¹ s⁻¹ | 280 mM | 100 s⁻¹ | 357 M⁻¹ s⁻¹ | 40 mM | 635 s⁻¹ | 15900 M⁻¹ s⁻¹ | 5 mM | 145 s⁻¹ | 29000 M⁻¹ s⁻¹ | 75 mM | 1940 s⁻¹ | Km (triacetin): 110 mM; kcat (triacetin): 120 s⁻¹; kcat/Km (triacetin): 1090 M⁻¹ s⁻¹; kcat/Km (vinyl propionate): 25800 M⁻¹ s⁻¹
B3 | 2.5 mM | 580 s⁻¹ | 232000 M⁻¹ s⁻¹ | 0.5 mM | 2250 s⁻¹ | 4.5e+06 M⁻¹ s⁻¹ | 14 mM | 225 s⁻¹ | 16100 M⁻¹ s⁻¹ | 280 mM | 455 s⁻¹ | 1630 M⁻¹ s⁻¹ | 20 mM | 2600 s⁻¹ | 130000 M⁻¹ s⁻¹ | 4 mM | 12000 s⁻¹ | 3e+06 M⁻¹ s⁻¹ | 100 mM | 1950 s⁻¹ | kcat/Km (vinyl propionate): 19500 M⁻¹ s⁻¹
B4 | 0.05 mM | 185 s⁻¹ | 3.7e+06 M⁻¹ s⁻¹ |  |  |  |  |  |  |  |  |  |  |  |  |  |  |  |  |  | 
B5 | 1 mM | 50 s⁻¹ | 50000 M⁻¹ s⁻¹ | 0.45 mM | 1500 s⁻¹ | 3.33e+06 M⁻¹ s⁻¹ | 10.5 mM | 750 s⁻¹ | 71400 M⁻¹ s⁻¹ | 295 mM | 70 s⁻¹ | 237 M⁻¹ s⁻¹ | 20 mM | 200 s⁻¹ | 10000 M⁻¹ s⁻¹ | 1.25 mM | 125 s⁻¹ | 100000 M⁻¹ s⁻¹ | 50 mM | 270 s⁻¹ | Km (triacetin): 120 mM; kcat (triacetin): 555 s⁻¹; kcat/Km (triacetin): 4630 M⁻¹ s⁻¹; kcat/Km (vinyl propionate): 5400 M⁻¹ s⁻¹
B6 | 1 mM | 190 s⁻¹ | 190000 M⁻¹ s⁻¹ | 0.4 mM | 18 s⁻¹ | 45000 M⁻¹ s⁻¹ | 15 mM | 7 s⁻¹ | 467 M⁻¹ s⁻¹ | 170 mM | 140 s⁻¹ | 824 M⁻¹ s⁻¹ | 11 mM | 210 s⁻¹ | 19100 M⁻¹ s⁻¹ | 3 mM | 31 s⁻¹ | 10300 M⁻¹ s⁻¹ | 70 mM | 105 s⁻¹ | kcat/Km (vinyl propionate): 1500 M⁻¹ s⁻¹
